Blank lines part the entries; values can stand above or below the molecule they belong to.
Experiments:
human P450 11A1 [1] = target: T1, human P450 11A1 (Homo sapiens, UniProt P05108); test: Steady-state kinetic assay with [1,2-3H]-cholesterol (radio-HPLC); type: biochemical; parameters: M A S T R S P R P F N E I P S P G D N; Met-Ala (N-terminal start residues in place of the transit peptide and Ile40) (N); made in house; host or cells: E. coli (P450 11A1 in C41(DE3); Adx and AdR in E. coli); details: ^3H-cholesterol substrate, triplicate
T1 sequence (P05108 41-521 limits assumed): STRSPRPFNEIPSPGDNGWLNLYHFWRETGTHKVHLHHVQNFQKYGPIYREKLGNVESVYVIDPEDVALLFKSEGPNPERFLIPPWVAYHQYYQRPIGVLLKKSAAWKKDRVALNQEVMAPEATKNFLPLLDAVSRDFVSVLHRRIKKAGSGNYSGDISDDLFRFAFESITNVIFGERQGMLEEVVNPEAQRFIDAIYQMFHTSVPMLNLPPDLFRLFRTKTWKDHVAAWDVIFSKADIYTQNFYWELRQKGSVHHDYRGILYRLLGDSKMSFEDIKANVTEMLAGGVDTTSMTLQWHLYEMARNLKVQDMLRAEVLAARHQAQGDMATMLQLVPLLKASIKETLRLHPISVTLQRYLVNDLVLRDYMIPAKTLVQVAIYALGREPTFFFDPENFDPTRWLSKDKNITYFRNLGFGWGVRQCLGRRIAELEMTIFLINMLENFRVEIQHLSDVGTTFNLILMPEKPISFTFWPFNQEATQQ
T1 sequence (P00257 59-186 partner): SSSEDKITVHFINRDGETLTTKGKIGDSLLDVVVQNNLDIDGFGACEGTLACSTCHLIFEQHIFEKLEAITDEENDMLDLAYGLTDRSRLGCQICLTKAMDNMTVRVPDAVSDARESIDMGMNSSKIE
Method: Samples (held at 4 °C) were injected (50 μl) using a Agilent 1100 Series HPLC system on a NovaPak (Waters) octadecylsilane (C18) 3.9 mm × 100 mm (4 μm) column (held at 25 °C) with a flow rate of 1.0 ml min^−1 using a gradient mobile phase of (A) H2O and (B) CH3CN as follows (all in % B, v/v): 0 min, 70%; 10 min, 100%; 35.5 min, 100%; 37 min, 30%; and 40 min, 70%). The flow rate was increased to 1.5 ml min^−1 (from the 10 min to 10.5 min interval) to decrease the retention of cholesterol and was later returned to 1.0 ml min^−1 (from the 35 min to 35.5 min interval) to prepare for the next injection. The column eluate was mixed (1:2, v/v) with FlowLogic U scintillation cocktail (LabLogic) and radioactivity (^3H) was detected using a β-RAM Model 5 radioflow detector (IN/US, LabLogic). Analytes were quantitated on the basis of their ^3H peak areas relative to the summed radioactivity of the four compounds of interest.
Figure S13. Steady-state kinetic assay of P450 11A1 with [1,2-^3H]-cholesterol. The enzyme reaction was performed in triplicate as described for the steady-state LC-MS assays, but with the use of ^3H-cholesterol (2 mCi mmol^-1) as the substrate. Product (^3H-pregnenolone) was detected by radio-HPLC as described (Experimental Methods). The highest rate measured was 6.7 ± 0.4 nmol product min^-1 (nmol P450)^-1.

[2] = target: T2, human cytochrome P450 11A1 (human, UniProt P05108 40-521); test: other fluorescence titration; preformed 1:1 complex of P450 11A1 and cholesterol titrated into Alexa 488-Adx (50 nM) in 100 mM potassium phosphate pH 7.4; quenching of fluorescence (excitation 493 nm, emission 500-600 nm); quadratic fit; with cholesterol (equimolar to P450); details: both partners purified
T2 construct: cytochrome P450 11A1, human, recombinant, codon-optimized insert in pET23C(+); In one titration it was added as a preformed 1:1 complex with cholesterol; also called CYP11A1; P450scc; source: E. coli C41(DE3) with GroES/GroEL, purified (CHAPS solubilisation, Ni-NTA, dialysis)
T2 sequence (looked up): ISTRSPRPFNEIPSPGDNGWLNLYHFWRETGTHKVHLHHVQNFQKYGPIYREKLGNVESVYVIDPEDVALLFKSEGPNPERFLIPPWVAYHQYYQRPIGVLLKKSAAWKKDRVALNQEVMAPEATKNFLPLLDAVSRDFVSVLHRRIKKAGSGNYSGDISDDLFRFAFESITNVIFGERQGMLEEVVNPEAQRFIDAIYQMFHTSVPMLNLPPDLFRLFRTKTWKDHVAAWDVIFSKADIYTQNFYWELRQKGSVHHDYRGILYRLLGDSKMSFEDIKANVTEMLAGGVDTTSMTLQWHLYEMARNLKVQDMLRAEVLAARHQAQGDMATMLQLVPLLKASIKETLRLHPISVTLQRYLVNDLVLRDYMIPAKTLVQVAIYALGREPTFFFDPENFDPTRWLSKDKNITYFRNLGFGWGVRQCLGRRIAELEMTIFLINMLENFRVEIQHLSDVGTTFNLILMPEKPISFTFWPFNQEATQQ

[3] = target: T2, human cytochrome P450 11A1; test: other fluorescence titration; P450 11A1 (0-0.4 uM) titrated into Alexa 488-Adx (50 nM) in 100 mM potassium phosphate pH 7.4; quenching of fluorescence (excitation 493 nm, emission 500-600 nm); quadratic fit; without cholesterol; details: both partners purified
bovine P450 11A1 = system: bovine P450 11A1; parameters: method as in PMID 15181009; details: surface plasmon resonance, bovine ref 47; read-out: Kd of P450 11A1-Adx complex, without sterol; cited from earlier work
human P450 11A1 [4] = system: human P450 11A1; parameters: method as in PMID 33271253; details: surface plasmon resonance, human ref 46; read-out: Kd of P450 11A1-Adx complex, without sterol; cited from earlier work

Molecule: [3H]C1C([3H])[C@@]2(C)C(=CC[C@H]3[C@@H]4CC[C@H]([C@H](C)CCCC(C)C)[C@@]4(C)CC[C@@H]32)C[C@H]1O (some centres unmarked) [[1,2-^3H]-cholesterol, [1,2-^3H]-Cholesterol]
highest rate measured (human P450 11A1 [1]): 6.7 ± 0.4 nmol product min^-1 (nmol P450)^-1

Kd [2]: 0.0082 µM
Kd [3]: 0.038 µM
B1: Alexa Fluor 488-labeled adrenodoxin (natural protein, bovine, UniProt P00257 59-186, looked up)
chain: SSSEDKITVHFINRDGETLTTKGKIGDSLLDVVVQNNLDIDGFGACEGTLACSTCHLIFEQHIFEKLEAITDEENDMLDLAYGLTDRSRLGCQICLTKAMDNMTVRVPDAVSDARESIDMGMNSSKIE
modifications: Alexa Fluor 488 label (site not stated)
notes: also called Alexa 488-Adx; Adx

B2: Adx: adrenodoxin, soluble iron-sulfur electron donor protein (recombinant bovine); used fluorescently labeled as Alexa 488-Adx (protein)
chain: SSSEDKITVHFINRDGETLTTKGKIGDSLLDVVVQNNLDIDGFGACEGTLACSTCHLIFEQHIFEKLEAITDEENDMLDLAYGLTDRSRLGCQICLTKAMDNMTVRVPDAVSDARESIDMGMNSSKIE
modifications: Alexa Fluor 488 label (site not stated)
notes: adrenodoxin, soluble iron-sulfur electron donor protein (recombinant bovine); used fluorescently labeled as Alexa 488-Adx
Kd (bovine P450 11A1): 0.0134 µM
Kd (human P450 11A1 [4]): 0.024 µM

From PMC10716780, “The multistep oxidation of cholesterol to pregnenolone by human cytochrome P450 11A1 is highly processive” (The Journal of Biological Chemistry, 2023)
